Assay results: US20180195056

wheat (Triticum) Atg4 ortholog (trAtg4)
protease concentration for significant cleavage, against its cognate substrate trAtg8 and the yeast substrate (His14-xlGATE16-MBP): the Xenopus xlGATE16 substrate required drastically (>100-fold) higher trAtg4 concentrations for significant cleavage
substrate cleavage in protease titration (100 µM substrate, 1 h, 25° C.) (His14-xlLC3B-MBP): xlLC3B cleavage by trAtg4 was only barely detectable
